# Data as given in the DeepSol protein solubility set.
# Assay: soluble on expression in E. coli; label from the status in PepcDB or PDB records
row,Sequence,soluble on expression in E. coli
1,MAHHHHHHMGQSNGAALAKDTIASEQFLKYQEARHRIVHRAFVKCVVPSSKGKDDGYDLTPEERVCVEEFAILYAGFAKKEFLHFSSLYEQYQRDQYEKMRLEVMQQQARKDIQH,not soluble
2,MAHHHHHHMGSTDGECASSLRGHRMPSWILSHLETESKCLNDTPLVEEEKAPPSVPVTVLKKRFPQGLKILKKAPPKEKIVMPVEEECADSCRSSRPSVSVQSAVPGNGHRIARHTIRFRMSDWANLIEEKKDLVAQAVKEDISEGCGLDIGRILQLELKLTDILVVTFIVDHSHDDGGERPFHARLKVCKFPRTSSLYLLR,soluble
3,MAHHHHHHMGTLEAQTQGPGSMKNYRIESDSFGEIQIEEKFYWGAQTQRSLNNFKISKQKMPKILIRALAILKKCAAQVNYEFGDLEYKIATSIDKAIDRILAGEFEDNFPLVVWQTGSGTQTNMNMNEVIASIANEELTGKKGGKFPVHPNDHVNKGQSSNDSFPTAMHIATVLATKQQLIPALNNLLTYLQDKSKDWDKIIKIGRTHLQDATPLTLKQEFSGYITQIEYALERIEDALKKVYLLAQGGTAVGTGINSKIGFDIKFAQKVAEFTQQPFKTAPNKFESLAAHDALVEFSGTLNTIAVSLMKIANDIRLLGSGPRCGLGELHLPENEPGSSIMPGKVNPTQVEALTMVCTQVMGNHVTVTIAGSNGHLELNVFKPVIIYNILQSIELLSDSVNSFVTHCVKGLEPNIARINTLRDKSLMLVTVLNPHIGYDNAAKIAKEAHKYGITLKEAAKKLNFLSEEEFDKIVVPEKMIS,soluble
4,MAHHHHHHMGTLEAQTQGPGSMNAGLDQVDPIWHSIRAEAEEATRNDPVLGAFLYATILNQPSLEEAVMHRIAERLGHPDVSADILRQTFDTMLEANPEWSHVLRVDIQAVYDRDPAYSRFMDPVLYLKGFHAIQTHRLAHWLYKQGRKDFAYYLQSRSSSIFQTDIHPAARLGSGLFLDHATGLVVGETAVVEDNVSILHGVTLGGTGKSSGDRHPKIRQGVLIGAGAKILGNIQVGQCSKIAAGSVVLKSVPHNVTVAGVPARIIGETGCTEPSRVMDQMLGDGI,soluble
5,MAHHHHHHMGTLEAQTQGPGSMTPAAHPPRAAIADIAGHLPEQVLTNDVLAQLYPDWPAEKILAKTGIRERRIAAPRETAADLAYEAARKLFAQGAVGADQVDFVILCTQAPDYVLPTSACMLQHRLGIPTHAGALDVNLGCSGYVYGLSLAKGLVETGAARCVLLLTADTYSKYLHPLDKSVRTLFGDGASATAVIAEHGELERIGPFVFGTDGRGAPNLIVKAGLFREPKSADSAREHEDASGNVRTDEHLYMNGAEVMAFSLAEVPRAADRLLALAGEPRENIDCFVLHQANRFMLDALRKKMKIPEHKFPVLMEHCGNTVSSTLPLALETMRANGTLARGMRLMLLGFGVGYSWAGCLVNF,soluble
6,MAHHHHHHMHECKDDRVLEKIQQINGYENIKLGDKKVLCDEIWTVTRCDKKFSYWIRYYEEDKNGYSLSVLPTQLKNIYYFLKYYYF,not soluble
7,MAHHHHHHMHIFIYIQYLCFGVNEIIFHKPHKCHFFIYNILEGEKGKKPGFINLSNIMNNHNKYESKGFSASSLNNKSFSMTNDKITCGNEKKEMEGEGILNGSSKVDEEDKNIYNSKNNNNNMNYFNNKKIETKKTLGHKDIFVYVLVAGGDGTVNWVLKEAEYYNINDNNFAIGVIPFGTGNDFAKAFGWKKIDRMLNHSFLFDVLKKIVDQTFKSKVEKHDYWNIHVVLKEQGYFNKINSRTKKKETLLNDDKENLHEMKLCMSNYFSIGIDSRIGRGFERHRQKSAVCNKFIYAVEGFKKVSFKKNTPINLIIDKMINMDNNNDNNDNDNNIDGNDNNNDGNDNNNVIFTTNHNESYPLLKKAMSIICINIPSYSSGNDIWNYTHKIGLILPKNITNDQKEQYQILKKTKQEVGDGILEFVIYQSGVDLGLEFTLKGRAYRVHQGFGPWKLLFKEQKYNVYFQVDGEYYLMSLPDYISIEHYKKINVLKNIL,not soluble
8,MAHHHHHHMIDPVKRDLTNLFLEKREMAKEEIDPRKDWLKRILLNNNTNDLRMFLKASELKTKEGDYCMTCKSNVKQLLYLHTKKNYCHLCEEIFCAYCVKSIDFMKDEKEKYIKIRLCRNCFIYINELKYIINPNLSVDRKAIDLQNSFNDISNCYTNLCSNVPQLNGLVLLCENNKEFLDSFKSEIKQLEEKIQHDVDFLNIMKKKNNFLSDNTLILNKMGKNLLLYLKIIRNKIIPSSIEVLNKTKELLYKK,not soluble
9,MAHHHHHHMIRWAAVLRCGAHGVREDRQALARHHLNLLDKRHWELTTPSRALPVVEVLIRSGVLMDRLEKSSTKPLASLTPSMTKKERSLVQKLSHMLHQASPPTACRVSRNAVEEDEAVRAAYSAACATGACTIDVVVDLAFVRHLRFPLSALMLLELVESRCVKVCWTRGKPCLSKELLDSICDLFAEHEQSLDFRATWWLLSLLGGGTQVRDWPITLSAGKRLFRLCVRRIHYLLPDLPLEDLLLAYVQLARIEGYEKPFIVLGEMERLLLATSSDEYTGVSTNVLLRFMTMPFAVRHADLNLRLCAGWSAASRITEFTQEECLAAFAIVAALHEGCVAESAAAVAALRDWEMLHDALFAQVFCVAHEMTAADCFRILDQSELINVSGWGITVPQMLLEKLKKRILSECTHYAMDECRVPETAELLLRVALGLQALMQRYTVLPSSAADEHAVAECILLLERCITVLPPHG,not soluble
10,MAHHHHHHMIVVSSPKATNYDEWEKQLKARRIIMNCPDEMVVKAMCAWMKRGLEPDKQVECWNMVEKHMEKVGPIPRHIFDEDDYIDRMSAVDDALLSIKPTDVGEHFTLRGSKLWYSEVPSHKLLKVVREITEKGAEVFLNASISADIGFRIADRLEKEMATKDFLLLILRWRDALVSHALEKLGLRAFMYGELVIAIVEGLKELPPPSPSKPRSSVLKVNYQGYPTRAVGLKELQGGVTRIPMEYRVLYIPKVENFPLVDGFFFVDSPRKTLVGLQMTTASAHHKITSTVNLFNERMAEYFNGWEELSRDLSWEMIYIQHALSKEISKWQRCGPVNTENLSDTEKEIVAFWDGRVHQYQFVLTPDFVSKIREMRIQQSWGKGIGKKVREIIGEQSAFRFGKYIGKYFNDFYVCVCAYGV,not soluble
11,MAHHHHHHMIYLIDNEDMIYIEFYRKKDCTFVYKFFNDTLPTGSTLSTSDVSAEYANIKYEINNNSCTVYSCDYSCLLKHKDYITIINNVLDKNLSDEILENYKNEKWLMYTKNDEEKLNLVIESNTLLRIKGKLRHEIIFGIPKKKKIQMQDKLMDRKNSYLVIFRFIREDNIKNFVTQKIKNKIPQNERQEKDCVPINVNEYTSEKLEKMYVLDVYNQIALHFGHTRAYEQEENVVGNRKFDSQDIFVPWYFQQQYKTEGYDDDAEGEGEEEPEKENEKEKEESHKFKPVKKGNMFKILKMKFFFFFYLLHNFRNIYIYNL,soluble
12,MAHHHHHHMKEDESDEPVQKKEYEKTFWEQIGKPKHILAPMVDLSELAFRLLCRNYNCHLTFTPMLHAKNFVEHEKYRKSYFQSCEKDEPVIAQFCGNNSKIILNAIEYIKNEVNAVDLNLGCPQQIAKKGNYGAFLLQKHDEVVNLVSDITNNCNIPITCKIRKIDQDYQKTLNLCYDLQSRNVKMITVHGRTKEEKGTNIKQCDYEIIKIIKERLNIPIIANGSIEHFEDIQKCLNYTKADAVMCAEILLEKPYFFSNQNVHTVDVVNEYYDLFLQYESNTKYLKGHLFKMLYKYFQVHTDLRDMLNNCHSLDDYVNFRSILNEKRSSGVLTESSLSWYRRYRKTE,not soluble
13,MAHHHHHHMKEHSHIIGLGDFFADAKKCWVLLASKSPRRIELMKLMGVSNLYICESGFEENLDKKQFASAEHYVKENALQKGLNVASHVWFGDQANTHSEGNVKEEETKKSTQQGSDSGHLSIGQPENEQHCTDATKKHQVKSLHSTYDPIPKVIISCDTIVTLKDEIIEKPLNKEHAREILKKLSSNIHCVYTAVCIFLHKTKVPITFIEKTDVHFDDLLEQDILEYLNSSEPYDKAGAYSIQGVGCQFIKKINGCYYNVMGLPINKLSKTLTQLCVEGKISA,soluble
14,MAHHHHHHMKINNNEKSYILYQCLKLLIRLHDAGLSHLDLTPENILISDNYEMRLCDLSKSTPIYTYNLRHIKDVNRLYLFESCEPTIAKGAYMPPECWKIYWKYDTMKIKNPLKDLKNITDQEKRKQFYFDVSSADKFMLGVFFFWIWTNGNLWKCSDPLQDEDFFYFVKCDMNFDKFELTRKWPTDLKNIIKVGGAEQRRSG,not soluble
15,MAHHHHHHMKTDDHLSQIHRMCRALGIRPGAPAPLIQPALTLQCPRLHTPMVVHEKPAAKIALPMLLSDSSGDVSYLAGQDSVGTLRMTPPGSPRTPALTSVSNMRHHAHLATSELPVSVLVASALSFVAAWRTEDSACTAQKDLIHCCLKARCDLELEEAGGRHRLNQLLLTVSEQMHRFVVMGEYSKFVVFCVDQEPVWRQAARQLQKENEARLHTTENIYSRFLMEEIAVSDKMRMFQEASDFVVSQGHAAREQRRRAQILAARRRCDRQSAPQETPMPFAPQSHLHPHQHKNESNAAALAGGWTPPQRQRPRDDSTDRRSGSSKERSSKNAKSHSTTEVDRYRQRWRKIIWFLSNGERGKPAPH,not soluble
16,MAHHHHHHMKYNEAQMRFYLLCLNMKQANTKEDKSQKISNSSTIDEIEEEQLYTGPLKIEQLLAKGFVKRDLELLKEGGLQTVECVAYAPMRTLCAIKGISEQKAEKLKKACKELCNSGFCNAIDYHDARQNLIKFTTGSKQLDALLKGGIETGGITELFGEFRTGKSQLCHTLAITCQLPIEQSGGEGKCLWIDTEGTFRPERIVAIAKRYGLHPTDCLNNIAYAKAYNCDHQTELLIDASAMMADARFALLIVDSATALYRSEYIGRGELANRQSHLCRFLRGLQRIADIYGVAVIITNQVVAKVDAMSMFGGHEKIPIGGNIIAHASQTRLYLRKGRGESRICKIYDSPVLPEGEAVFAITEGGIADYEEK,not soluble
17,MAHHHHHHMLCHNVASKVSELLLNRMNCPFLQNVQVRNHKIIKPRNIIKLWKINKGDEVKVISGKDKGKIGEVLSCDKFRNMVKVKGCNLRKIYLDNKFVYIEKKIHYSNVQLIDDFLKTNTKVCIRYTDDNQVIRISKKSGIVIPWPSKTNKEDEFDDVEENPLDTPPQEALKKTYDYKADVKFMNILRQTVNKYNRELS,not soluble
18,MAHHHHHHMLEGPNAEEAKKAILECDGIFVPGGFGKRGVDGKCAAVALARHHNIPYFGVCLGMQVALIQVCREELGWKDANSEEFDPSSTHQIVRIMDCDRHSMGANMHLGARNVHLVEKNSIMSTIYSGADFVVERHRHRYEVNTTYLGQLRGAGVLISGVSDPTFGPHTRVEAIEIPSLRFFLAVQFHPEFVSSPMDPSPPYLAFMAAASKKEYKWPESCAARRVKTL,not soluble
19,MAHHHHHHMLPGDVVEVLVTNSHGTQDADDVERLCKALHLDPCAWCELHRSPFVPEDNFPPWLPLQKPLTLGQLLSAYVDISSSSYLLHQSFFESLFRIYSDSKPSSASSTSTTPSPDPEKVRLLEACASSETGPQLLRLLSKSSTPLCYPSLVDVLEVFSFVNIPLDRLLEVSGPLQTRRYSLANWIPATLPLSPLQLCMREVCARRSANLPAATPVGADAQRVADMLNRAAQDASRDHGNFFFGHTSHPLCCAARSMTRSAAGAGQRGMYVSFSLFGNSLFARQLQAGCTALCNPAQAKSLCSPLFLIGCGTGIAPLIAAVTQLMLRRACTAAGSAPFPCWVFYGARTKAELLYDEVLREALRTGAIAKYEYALSREEDNEKQGRYVTDLVKQNRLMVTDSLRNEGQLFVCGPAKALVSVRQLVKCDLLAEPDDDDSVQEQRLLVLEDRGRLNFDIWSTGNIFE,not soluble
